Reference: patent publication US20150045540A1 (published 2015)

T1: Placenta Growth Factor (PlGF), human (human, UniProt P49763 21-149)
T1 chain: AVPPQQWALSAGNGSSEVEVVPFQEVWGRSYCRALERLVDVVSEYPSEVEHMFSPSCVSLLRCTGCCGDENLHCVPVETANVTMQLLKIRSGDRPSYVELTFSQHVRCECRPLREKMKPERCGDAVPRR


Experiments:
[1] = molecular target: Hepatocyte Growth Factor (HGF), human (human, UniProt P14210 32-728); test: ELISA
[2] = molecular target: T1, Placenta Growth Factor (PlGF), human; test: ELISA

Sequence of Hepatocyte Growth Factor (HGF), human (P14210 32-728): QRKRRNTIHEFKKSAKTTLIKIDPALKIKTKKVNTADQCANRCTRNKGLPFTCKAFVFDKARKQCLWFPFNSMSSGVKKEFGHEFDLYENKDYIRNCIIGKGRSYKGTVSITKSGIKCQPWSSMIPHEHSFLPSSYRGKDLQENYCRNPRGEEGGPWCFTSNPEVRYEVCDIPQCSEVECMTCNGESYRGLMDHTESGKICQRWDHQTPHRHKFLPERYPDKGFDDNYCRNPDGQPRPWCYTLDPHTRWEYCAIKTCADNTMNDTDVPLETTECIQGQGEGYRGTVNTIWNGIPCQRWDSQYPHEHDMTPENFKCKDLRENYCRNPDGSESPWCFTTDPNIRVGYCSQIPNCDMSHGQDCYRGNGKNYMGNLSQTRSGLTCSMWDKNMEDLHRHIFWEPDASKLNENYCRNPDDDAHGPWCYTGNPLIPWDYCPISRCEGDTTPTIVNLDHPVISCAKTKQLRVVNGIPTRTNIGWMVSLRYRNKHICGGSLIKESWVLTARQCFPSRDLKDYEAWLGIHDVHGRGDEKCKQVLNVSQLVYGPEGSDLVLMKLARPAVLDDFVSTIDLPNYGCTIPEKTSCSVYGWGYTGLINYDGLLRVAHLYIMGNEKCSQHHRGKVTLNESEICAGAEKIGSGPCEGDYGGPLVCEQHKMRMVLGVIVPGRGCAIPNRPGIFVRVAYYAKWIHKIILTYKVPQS

Binder	EC50 [1]	EC50 [2]
HC 10/SLC 9 (antibody) chain 1: GQGTLVTVSSASTKGPSVFPQPVLHQPPAMSSALGTTIRLTCTLRNDHDIGVYSVYWYQQRPGHPPRFLLRYFSQSDKSQGPQVPPRFSGSKDVARNRGYLSISELQPEDEAMYYCAMGARSRCWPRGFQSKHNSVTHVFGSGTQLTVLSQPKATPSVTLFPPSSEELQANKATLVCLMNDFYPGILTVTWKADGTPITQGVEMTTPSKQSNNKYAASSYLSLTPEQWRSRRSYSCQVMHEGSTVEKTVAPAECS chain 2: MSWAPVLLMLFVYCTGCGPQPVLHQPPAMSSALGTTIRLTCTLRNDHDIGVYSVYWYQQRPGHPPRFLLRYFSQSDKSQGPQVPPRFSGSKDVARNRGYLSISVTHVFGSGTQLTVLSQPKATPSVQVQLVQ	0.053 nM	0.039 nM
HC 3/SLC 10 (antibody) chain 1: GQGTLVTVSSASTQPVLHQPPAMSSALGTTIRLTCTLRNDHDIGVYSVYWYQQRPGHPPRFLLRYFSQSDKSQGPQVPPRFSGSKDVARNRGYLSISELQPEDEAMYYCAMGARSRCWPRGFQSKHNSVTHVFGSGTQLTVLSQPKATPSVTLFPPSSEELQANKATLVCLMNDFYPGILTVTWKADGTPITQGVEMTTPSKQSNNKYAASSYLSLTPEQWRSRRSYSCQVMHEGSTVEKTVAPAECS chain 2: MSWAPVLLMLFVYCTGCGPQPVLHQPPAMSSALGTTIRLTCTLRNDHDIGVYSVYWYQQRPGHPPRFLLRYFSQSDKSQGPQVPPRFSGSKDVARNRGYLSISVTHVFGSGTQLTVLSQPKATPSVTQVQLVQ	~0.041 nM	
HC 8/SLC 10 (antibody) chain 1: GQGTLVTVSSASTKGPSVQPVLHQPPAMSSALGTTIRLTCTLRNDHDIGVYSVYWYQQRPGHPPRFLLRYFSQSDKSQGPQVPPRFSGSKDVARNRGYLSISELQPEDEAMYYCAMGARSRCWPRGFQSKHNSVTHVFGSGTQLTVLSQPKATPSVTLFPPSSEELQANKATLVCLMNDFYPGILTVTWKADGTPITQGVEMTTPSKQSNNKYAASSYLSLTPEQWRSRRSYSCQVMHEGSTVEKTVAPAECS chain 2: MSWAPVLLMLFVYCTGCGPQPVLHQPPAMSSALGTTIRLTCTLRNDHDIGVYSVYWYQQRPGHPPRFLLRYFSQSDKSQGPQVPPRFSGSKDVARNRGYLSISVTHVFGSGTQLTVLSQPKATPSVTQVQLVQ	~0.041 nM	
HC 6/SLC 10 (antibody) chain 1: GQGTLVTVSSASTKGPQPVLHQPPAMSSALGTTIRLTCTLRNDHDIGVYSVYWYQQRPGHPPRFLLRYFSQSDKSQGPQVPPRFSGSKDVARNRGYLSISELQPEDEAMYYCAMGARSRCWPRGFQSKHNSVTHVFGSGTQLTVLSQPKATPSVTLFPPSSEELQANKATLVCLMNDFYPGILTVTWKADGTPITQGVEMTTPSKQSNNKYAASSYLSLTPEQWRSRRSYSCQVMHEGSTVEKTVAPAECS chain 2: MSWAPVLLMLFVYCTGCGPQPVLHQPPAMSSALGTTIRLTCTLRNDHDIGVYSVYWYQQRPGHPPRFLLRYFSQSDKSQGPQVPPRFSGSKDVARNRGYLSISVTHVFGSGTQLTVLSQPKATPSVTQVQLVQ	~0.041 nM	
HC 9/SLC 6 (antibody) chain 1: GQGTLVTVSSASTKGPSVFQPVLHQPPAMSSALGTTIRLTCTLRNDHDIGVYSVYWYQQRPGHPPRFLLRYFSQSDKSQGPQVPPRFSGSKDVARNRGYLSISELQPEDEAMYYCAMGARSRCWPRGFQSKHNSVTHVFGSGTQLTVLSQPKATPSVTLFPPSSEELQANKATLVCLMNDFYPGILTVTWKADGTPITQGVEMTTPSKQSNNKYAASSYLSLTPEQWRSRRSYSCQVMHEGSTVEKTVAPAECS chain 2: MSWAPVLLMLFVYCTGCGPQPVLHQPPAMSSALGTTIRLTCTLRNDHDIGVYSVYWYQQRPGHPPRFLLRYFSQSDKSQGPQVPPRFSGSKDVARNRGYLSISVTHVFGSGTQLTVLSQPKATQVQLVQ	0.059 nM	0.096 nM
HC 5/SLC 8 (antibody) chain 1: GQGTLVTVSSASTKGQPVLHQPPAMSSALGTTIRLTCTLRNDHDIGVYSVYWYQQRPGHPPRFLLRYFSQSDKSQGPQVPPRFSGSKDVARNRGYLSISELQPEDEAMYYCAMGARSRCWPRGFQSKHNSVTHVFGSGTQLTVLSQPKATPSVTLFPPSSEELQANKATLVCLMNDFYPGILTVTWKADGTPITQGVEMTTPSKQSNNKYAASSYLSLTPEQWRSRRSYSCQVMHEGSTVEKTVAPAECS chain 2: MSWAPVLLMLFVYCTGCGPQPVLHQPPAMSSALGTTIRLTCTLRNDHDIGVYSVYWYQQRPGHPPRFLLRYFSQSDKSQGPQVPPRFSGSKDVARNRGYLSISVTHVFGSGTQLTVLSQPKATPSQVQLVQ	0.055 nM	0.115 nM
HC 2/SLC 2 (antibody) chain 1: GQGTLVTVSSASQPVLHQPPAMSSALGTTIRLTCTLRNDHDIGVYSVYWYQQRPGHPPRFLLRYFSQSDKSQGPQVPPRFSGSKDVARNRGYLSISELQPEDEAMYYCAMGARSRCWPRGFQSKHNSVTHVFGSGTQLTVLSQPKATPSVTLFPPSSEELQANKATLVCLMNDFYPGILTVTWKADGTPITQGVEMTTPSKQSNNKYAASSYLSLTPEQWRSRRSYSCQVMHEGSTVEKTVAPAECS chain 2: MSWAPVLLMLFVYCTGCGPQPVLHQPPAMSSALGTTIRLTCTLRNDHDIGVYSVYWYQQRPGHPPRFLLRYFSQSDKSQGPQVPPRFSGSKDVARNRGYLSISVTHVFGSGTQLTVLSQQVQLVQ	0.051 nM	0.049 nM
HC 2/SLC 3 (antibody) chain 1: GQGTLVTVSSASQPVLHQPPAMSSALGTTIRLTCTLRNDHDIGVYSVYWYQQRPGHPPRFLLRYFSQSDKSQGPQVPPRFSGSKDVARNRGYLSISELQPEDEAMYYCAMGARSRCWPRGFQSKHNSVTHVFGSGTQLTVLSQPKATPSVTLFPPSSEELQANKATLVCLMNDFYPGILTVTWKADGTPITQGVEMTTPSKQSNNKYAASSYLSLTPEQWRSRRSYSCQVMHEGSTVEKTVAPAECS chain 2: MSWAPVLLMLFVYCTGCGPQPVLHQPPAMSSALGTTIRLTCTLRNDHDIGVYSVYWYQQRPGHPPRFLLRYFSQSDKSQGPQVPPRFSGSKDVARNRGYLSISVTHVFGSGTQLTVLSQPQVQLVQ	0.058 nM	0.046 nM
HC 10/SLC 2 (antibody) chain 1: GQGTLVTVSSASTKGPSVFPQPVLHQPPAMSSALGTTIRLTCTLRNDHDIGVYSVYWYQQRPGHPPRFLLRYFSQSDKSQGPQVPPRFSGSKDVARNRGYLSISELQPEDEAMYYCAMGARSRCWPRGFQSKHNSVTHVFGSGTQLTVLSQPKATPSVTLFPPSSEELQANKATLVCLMNDFYPGILTVTWKADGTPITQGVEMTTPSKQSNNKYAASSYLSLTPEQWRSRRSYSCQVMHEGSTVEKTVAPAECS chain 2: MSWAPVLLMLFVYCTGCGPQPVLHQPPAMSSALGTTIRLTCTLRNDHDIGVYSVYWYQQRPGHPPRFLLRYFSQSDKSQGPQVPPRFSGSKDVARNRGYLSISVTHVFGSGTQLTVLSQQVQLVQ	0.063 nM	0.166 nM
HC 4/SLC 15 (antibody) chain 1: GQGTLVTVSSASTKQPVLHQPPAMSSALGTTIRLTCTLRNDHDIGVYSVYWYQQRPGHPPRFLLRYFSQSDKSQGPQVPPRFSGSKDVARNRGYLSISELQPEDEAMYYCAMGARSRCWPRGFQSKHNSVTHVFGSGTQLTVLSQPKATPSVTLFPPSSEELQANKATLVCLMNDFYPGILTVTWKADGTPITQGVEMTTPSKQSNNKYAASSYLSLTPEQWRSRRSYSCQVMHEGSTVEKTVAPAECS chain 2: MSWAPVLLMLFVYCTGCGPQPVLHQPPAMSSALGTTIRLTCTLRNDHDIGVYSVYWYQQRPGHPPRFLLRYFSQSDKSQGPQVPPRFSGSKDVARNRGYLSISVTHVFGSGTQLTVLSQPKATPSVTGGGGSQVQLVQ	~0.041 nM	0.057 nM
HC 4/SLC 9 (antibody) chain 1: GQGTLVTVSSASTKQPVLHQPPAMSSALGTTIRLTCTLRNDHDIGVYSVYWYQQRPGHPPRFLLRYFSQSDKSQGPQVPPRFSGSKDVARNRGYLSISELQPEDEAMYYCAMGARSRCWPRGFQSKHNSVTHVFGSGTQLTVLSQPKATPSVTLFPPSSEELQANKATLVCLMNDFYPGILTVTWKADGTPITQGVEMTTPSKQSNNKYAASSYLSLTPEQWRSRRSYSCQVMHEGSTVEKTVAPAECS chain 2: MSWAPVLLMLFVYCTGCGPQPVLHQPPAMSSALGTTIRLTCTLRNDHDIGVYSVYWYQQRPGHPPRFLLRYFSQSDKSQGPQVPPRFSGSKDVARNRGYLSISVTHVFGSGTQLTVLSQPKATPSVQVQLVQ	0.045 nM	0.101 nM
HC 2/SLC 15 (antibody) chain 1: GQGTLVTVSSASQPVLHQPPAMSSALGTTIRLTCTLRNDHDIGVYSVYWYQQRPGHPPRFLLRYFSQSDKSQGPQVPPRFSGSKDVARNRGYLSISELQPEDEAMYYCAMGARSRCWPRGFQSKHNSVTHVFGSGTQLTVLSQPKATPSVTLFPPSSEELQANKATLVCLMNDFYPGILTVTWKADGTPITQGVEMTTPSKQSNNKYAASSYLSLTPEQWRSRRSYSCQVMHEGSTVEKTVAPAECS chain 2: MSWAPVLLMLFVYCTGCGPQPVLHQPPAMSSALGTTIRLTCTLRNDHDIGVYSVYWYQQRPGHPPRFLLRYFSQSDKSQGPQVPPRFSGSKDVARNRGYLSISVTHVFGSGTQLTVLSQPKATPSVTGGGGSQVQLVQ	0.041 nM	0.053 nM
HC 6/SLC 15 (antibody) chain 1: GQGTLVTVSSASTKGPQPVLHQPPAMSSALGTTIRLTCTLRNDHDIGVYSVYWYQQRPGHPPRFLLRYFSQSDKSQGPQVPPRFSGSKDVARNRGYLSISELQPEDEAMYYCAMGARSRCWPRGFQSKHNSVTHVFGSGTQLTVLSQPKATPSVTLFPPSSEELQANKATLVCLMNDFYPGILTVTWKADGTPITQGVEMTTPSKQSNNKYAASSYLSLTPEQWRSRRSYSCQVMHEGSTVEKTVAPAECS chain 2: MSWAPVLLMLFVYCTGCGPQPVLHQPPAMSSALGTTIRLTCTLRNDHDIGVYSVYWYQQRPGHPPRFLLRYFSQSDKSQGPQVPPRFSGSKDVARNRGYLSISVTHVFGSGTQLTVLSQPKATPSVTGGGGSQVQLVQ	0.05 nM	0.046 nM
HC 4/SLC 10 (antibody) chain 1: GQGTLVTVSSASTKQPVLHQPPAMSSALGTTIRLTCTLRNDHDIGVYSVYWYQQRPGHPPRFLLRYFSQSDKSQGPQVPPRFSGSKDVARNRGYLSISELQPEDEAMYYCAMGARSRCWPRGFQSKHNSVTHVFGSGTQLTVLSQPKATPSVTLFPPSSEELQANKATLVCLMNDFYPGILTVTWKADGTPITQGVEMTTPSKQSNNKYAASSYLSLTPEQWRSRRSYSCQVMHEGSTVEKTVAPAECS chain 2: MSWAPVLLMLFVYCTGCGPQPVLHQPPAMSSALGTTIRLTCTLRNDHDIGVYSVYWYQQRPGHPPRFLLRYFSQSDKSQGPQVPPRFSGSKDVARNRGYLSISVTHVFGSGTQLTVLSQPKATPSVTQVQLVQ	~0.041 nM	
